Values of other authors, collected in article PMC6601554.

Target: Mouse neonatal Fc receptor (FcRn) (UniProt Q61559)
Assay: not stated in this article

Chain of UniProt Q61559 (Q61559 whole entry): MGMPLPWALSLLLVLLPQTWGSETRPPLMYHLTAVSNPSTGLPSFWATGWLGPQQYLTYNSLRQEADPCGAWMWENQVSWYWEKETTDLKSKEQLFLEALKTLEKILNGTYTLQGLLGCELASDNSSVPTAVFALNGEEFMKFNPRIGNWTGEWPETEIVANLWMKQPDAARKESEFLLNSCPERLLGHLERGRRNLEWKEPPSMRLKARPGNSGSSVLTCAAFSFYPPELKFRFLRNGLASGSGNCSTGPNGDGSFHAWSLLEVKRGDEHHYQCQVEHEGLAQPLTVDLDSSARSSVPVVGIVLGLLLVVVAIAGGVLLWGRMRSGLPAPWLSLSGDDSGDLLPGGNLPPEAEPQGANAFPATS

Kd (pH 6.0): 1.2 nM | Kd (pH 7.2): 7.4 nM
Substance: MST-HN human IgG1 (Abdeg; mutated humanized anti-hen egg lysozyme HuLys10) M252Y;S254T;T256E;H433K;N434F
